Assay results published in US20250002557A1 (SUZHOU LIGHT FERRY BIOMED, published 2025).

B1: VEGF-C (ligand, UniProt P49767 112-227, looked up)
chain: AHYNTEILKSIDNEWRKTQCMPREVCIDVGKEFGVATNTFFKPPCVSVYRCGGCCNSEGLQCMNTSTSYLSKTLFEITVPLSQGPKPVTISFANHTSCRCMSKLDVYRQVHSIIRR
notes: Bought reagent
B2: VEGFR2-Fc (Met1-Glu764) (Fc fusion)
chain: ASVGLPSVSLDLPRLSIQKDILTIKANTTLQITCRGQRDLDWLWPNNQSGSEQRVEVTECSDGLFCKTLTIPKVIGNDTGAYKCFYRETDLASVIYVYVQDYRSPFIASVSDQHGVVYITENKNKTVVIPCLGSISNLNVSLCARYPEKRFVPDGNRISWDSKKGFTIPSYMISYAGMVFCEAKINDESYQSIMYIVVVVGYRIYDVVLSPSHGIELSVGEKLVLNCTARTELNVGIDFNWEYPSSKHQHKKLVNRDLKTQSGSEMKKFLSTLTIDGVTRSDQGLYTCAASSGLMTKKNSTFVRVHEKPFVAFGSGMESLVEATVGERVRIPAKYLGYPPPEIKWYKNGIPLESNHTIKAGHVLTIMEVSERDTGNYTVILTNPISKEKQSHVVSLVVYVPPQIGEKSLISPVDSYQYGTTQTLTCTVYAIPPPHHIHWYWQLEEECANEPSQAVSVTNPYPCEEWRSVEDFQGGNKIEVNKNQFALIEGKNKTVSTLVIQAANVSALYKCEAVNKVGRGERVISFHVTRGPEITLQPDMQPTEQESVSLWCTADRSTFENLTWYKLGPQPLPIHVGELPTPVCKNLDTLWKLNATMFSNSTNDILIMELKNASLQDQGDYVCLAQDRKTKKRHCVVRQLTVLERVAPTITGNLENQTTSIGESIEVSCTASGNPPPQIMWFKDNETLVEDSGIVLKDGNRNLTIRRVRKEDEGLYTCQACSVLGCAKVEAFFIIEGAQEKTNLE
notes: also called VEGFR2-Fc with the full extracellular domain; Full VEGFR2 extracellular domain; not shown: Fc part
B3: VEGF-D (ligand, UniProt O43915 89-205, looked up)
chain: FAATFYDIETLKVIDEEWQRTQCSPRETCVEVASELGKSTNTFFKPPCVNVFRCGGCCNEESLICMNTSTSYISKQLFEISVPLTSVPELVPVKVANHTGCKCLPTAPRHPYSIIRR
notes: Bought reagent

Assays:
[1] = target: B2; test: SPR Biacore T200 (Example 8)
[2] = target: B3; test: blocking ELISA: His-VEGF-D premixed with sample, binding to coated VEGFR3-Fc read with anti-His-HRP
Experimental: (§1) During the blocking period, each recombinant receptor molecule was serially diluted from high to low concentrations, mixed evenly with 10 ng/well of VEGF-C or 500 ng/well of VEGF-D (both labeled with His-tag), allowing for incubation at room temperature for 30 minutes. […] The plates were washed with PBST, then TMB was added for color development, terminated with 5% hydrochloric acid solution, and finally, the OD values at 450 nm were read using a microplate reader.

[3] = target: B3; test: as above; remark: listed apart in the source
Experimental: as §1

[4] = target: B3; test: blocking ELISA: His-VEGF-D premixed with sample, binding to coated VEGFR2-Fc read with anti-His-HRP
Experimental: as §1, with “100” for “10”, “or” for “or 500 ng/well of”, “then anti-polyhistidine secondary antibody conjugated with horseradish peroxidase was added to allow for incubation and binding at room temperature for 1 hour. Then the plates were washed with PBST,” for “then”

[5] = target: B1; test: ELISA binding to VEGF-C, absorbance 450 nm
Experimental: VEGF-A165, VEGF-C and VEGF-D polypeptide molecules were purchased from ACROBiosystems Inc. VEGF molecules at 100-300 ng/well prepared in PBS were used for coating overnight at 4° C., the next day, the plates were washed with PBS, and 1% BSA solution was added to block for 2 hours at room temperature, after which the plates were washed again with PBS. […] Goat anti-human Fc secondary antibody conjugated with horseradish peroxidase diluted in PBT was added, followed by incubation at room temperature and 300 rpm for 1 hour, after that, the plates were washed three times with PBST solution. Then TMB was added for color development, terminated with 5% hydrochloric acid solution, and finally, the OD values at 450 nm were read using a microplate reader.

[6] = target: B3; test: blocking ELISA: His-VEGF-D premixed with sample, binding to coated VEGFR2-Fc read with anti-His-HRP; remark: listed apart in the source
Experimental: as §1, with “100” for “10”, “or” for “or 500 ng/well of”, “then anti-polyhistidine secondary antibody conjugated with horseradish peroxidase was added to allow for incubation and binding at room temperature for 1 hour. Then the plates were washed with PBST,” for “then”

[7] = target: B2; test: SPR, PDGF coupled to CM5 chip, VEGFR2-Fc in flow; row label printed PDGF-BR
Excerpt: Nevertheless, it was found in the preliminary detection experiments that PDGF family molecules (purchased from R&D Systems Inc.) were prone to produce non-specific binding in the chip, resulting in a pseudo-elevation in measured values, such that the detection could not be completed. Therefore, PDGF-AA, PDGF-AB, PDGF-BB and PDGF-CC molecules were separately loaded through a coupling reaction on a CM5 chip, followed by influx of the recombinant receptor molecules, thus effectively eliminating the impact of non-specific binding on affinity determination.

Row | Binder | Kd [1] [nM] | koff [1] [s⁻¹] | kon [1] [M⁻¹ s⁻¹] | also measured
1 | B1 | 16.7 | 0.000452 | 27100 | 
2 | B2 |  |  |  | EC50 [2]: 33.4 nM; EC50 [3]: 33.4 nM; EC50 [4]: 31.5 nM; EC50 [5]: 269 nM; EC50 [6]: 31.5 nM
3 | B3 | 21 | 0.000673 | 32100 | 
4 | PDGF-BB (ligand, UniProt P01127 82-190, looked up, Bought reagent) SLGSLTIAEPAMIAECKTRTEVFEISRRLIDRTNANFLVWPPCVEVQRCSGCCNNRNVQCRPTQVQLRPVQVRKIEIVRKKPIFKKATVTLEDHLACKCETVAAARPVT |  |  |  | Kd [7]: 14.1 nM
